The values below come from patent US9267129B2, “Compositions and methods for conferring herbicide resistance” (BEN-GURION UNIVERSITY OF THE NEGEV RESEARCH AND DEVELOPMENT …, priority 2011, dated 2016).

This data set can be described thus: AHAS catalytic activity, pyruvate dependence. In kind it is biochemical, Parietochloris incisa. The procedure:
To overexpress the hexahistidine (6xHis)-tagged PiAHAS genes in E. coli strain JM109, plasmids pQE-WT and pQE-MUT were used. These plasmids were constructed by inserting the BamHI-SalI fragment containing the cloned PiAHAS wt and mutant genes into plasmid pQE30 (Qiagen, Hilden, Germany). These plasmids express PiAHAS fused at its N-terminus to the pQE30 6xHis leader. pQE-WT and pQE-MUT were transformed into E. coli for expression. The transformed cells were grown, IPTG induced, and harvested as described previously (Hill C et al. Purification of Escherichia coli acetohydroxyacid synthase isoenzyme II and reconstitution of active enzyme from its individual pure subunits. Biochem. J. 1997, 327, 891-898). Bacterial cells were disrupted by sonication in a binding buffer with 20 mM imidazol, 0.5 M sodium chloride, 50 mM sodium dihydrogen phosphate (pH 8.0), 20 μM FAD and 50 μl/g cells of protease inhibitor cocktail (Sigma-Aldrich, Israel). After 30 min of centrifugation at 20,000×g, the supernatant was loaded on a 1.5×8 cm column of Ni2+-nitrilotriacetatic acid-agarose (Qiagen) previously washed with the binding buffer. The column was then washed with 80 ml of the binding buffer, and the His-AHAS protein eluted with 0.4 M imidazol in the binding buffer. The fractions were dialyzed against 50 mM potassium phosphate buffer (pH 7.6), containing 20 μM FAD. The protein was concentrated for storage at −20 °C by dialysis against same buffer, containing 50% glycerol. The AHAS catalytic activity was determined as previously described (Bar-Ilan A et al. Binding and activation of thiamin diphosphate in acetohydroxyacid synthase. Biochemistry (N.Y.) 2001, 40, 11946-11954). The reactions were carried for 20 min at 37 °C in 0.1 M potassium phosphate buffer (pH 7.6), containing 10 mM magnesium chloride, 0.1 mM ThDP, 75 μM FAD, 5 mM EDTA, 1 mM DTT with 100 mM pyruvate as substrate, except where otherwise indicated. The activity is expressed in units (U) (1 U=1 μmol of acetolactate formed min^−1). Km for pyruvate and Ki for SMM were determined by varying the concentration of the factor in question. Protein concentration was determined by the dye-binding method of Bradford (Bradford MM. A rapid and sensitive method for the quantitation of microgram quantities of protein utilizing the principle of protein-dye binding. Anal. Biochem. 1976, 72, 248-254), with bovine serum albumin as standard. Km calculations were fit with the program “Sigma-Plot” to Michaelis-Menten equation. For Ki calculations, the lines were fit to equations: V=Vo×Ki/(Ki+[SMM]), for wild-type; V=Vf+(Vo−Vf)×Ki/(Ki+[SMM]), for mutant.
Enzymatic activity of the wild type and mutant forms of AHAS in the presence of different Pyruvate substrate concentrations was assayed with 6.9 μg/ml of PiAHAS wild-type protein and 11.5 μg/ml of mutant protein (FIG. 5) and the specific activity and Km were calculated.

B1: Wild-type: Parietochloris incisa acetohydroxyacid synthase (AHAS), SEQ ID NO: 1, expressed as N-terminal hexahistidine-tagged protein (protein, listed as Parietochloris incisa)
chain: MQGTMRPTAGALQQTVGCWHVPAGIPHAQQALRGRILPEELKQRCSATKPRAARQSAVTAAKLAEGKAGTPSRSLRQQPAAPQQQQQQQDSNELVALREAAKASLSSPAPAEWVDRFGSEPRKGADILVQCLEREGAFRVFAYPGGASMEIHQALTRSGIIRNILCRHEQGEIFAAEGYAKCTGDVGVCIATSGPGATNLVTGLADAMLDSVPLVAITGQVPRKMIGTDGFQETPIVEVTRQITKHNFLVMDLDDLPRIMKEAFYLARTGRPGPVLVDVPKDIQQQLAVPDWDTPMAISGYMSRLPAPPNPSQLAAVVRALKEAKRPTLYVGGGALDSSAELREFVRLTGIPVAQTLMGLGTFPEEDPLALQMLGMHGTVYANYAVNDSDLLLAFGVRFDDRVTGKLEAFASRACIVHIDIDPAEICKNKEAHIPICADLRASLIALNELLRRDPLPEGAFADWRAAIEAKKQEFPMTFPERDDVIIPQRAIQMLYEETNGEAIISTGVGQHQMWAAQWYQYNEPRRWVTSGGLGSMGFGLPSALGAAAVAYDGTDGRPKKVVVDIDGDGSFLMNCQELATAAVEGLETKIMILNNQHLGMVVQWEDRFYKANRAHTYLGHRANEYHTTLDESHIFPDFVMMAKSCGVPGRRVIKPEELRGAIREMLDTPGPFLLDVMVPHVEHVLPMIPGGGSFKDIITKGDGRDEY
modifications: N-terminal hexahistidine tag
A word on the Km: it is the substrate concentration at which the rate is half of its maximum. B1: where the note is “37° C., pH 7.6”, the Km amounted to 49.4 ± 2.1 mM and the Specific activity was found to be 3.00 ± 0.05 U × mg^−1. The Specific activity (purified protein) came out at 3 U/mg.

B2: Mutant: Parietochloris incisa AHAS with Trp605 substituted by Serine (W605S), SEQ ID NO: 2, hexahistidine-tagged (protein, listed as Parietochloris incisa)
chain: MQGTMRPTAGALQQTVGCWHVPAGIPHAQQALRGRILPEELKQRCSATKPRAARQSAVTAAKLAEGKAGTPSRSLRQQPAAPQQQQQQQDSNELVALREAAKASLSSPAPAEWVDRFGSEPRKGADILVQCLEREGAFRVFAYPGGASMEIHQALTRSGIIRNILCRHEQGEIFAAEGYAKCTGDVGVCIATSGPGATNLVTGLADAMLDSVPLVAITGQVPRKMIGTDGFQETPIVEVTRQITKHNFLVMDLDDLPRIMKEAFYLARTGRPGPVLVDVPKDIQQQLAVPDWDTPMAISGYMSRLPAPPNPSQLAAVVRALKEAKRPTLYVGGGALDSSAELREFVRLTGIPVAQTLMGLGTFPEEDPLALQMLGMHGTVYANYAVNDSDLLLAFGVRFDDRVTGKLEAFASRACIVHIDIDPAEICKNKEAHIPICADLRASLIALNELLRRDPLPEGAFADWRAAIEAKKQEFPMTFPERDDVIIPQRAIQMLYEETNGEAIISTGVGQHQMWAAQWYQYNEPRRWVTSGGLGSMGFGLPSALGAAAVAYDGTDGRPKKVVVDIDGDGSFLMNCQELATAAVEGLETKIMILNNQHLGMVVQSEDRFYKANRAHTYLGHRANEYHTTLDESHIFPDFVMMAKSCGVPGRRVIKPEELRGAIREMLDTPGPFLLDVMVPHVEHVLPMIPGGGSFKDIITKGDGRDEY
modifications: hexahistidine tag
For the molecule B2, for the setting “37° C., pH 7.6”, the Km stood at 71.7 ± 2.9 mM and the Specific activity is given as 1.46 ± 0.03 U × mg^−1. Where the note is “mutant versus wild type”, the “decrease in affinity to the Pyruvate substrate compared to wild type” value worked out at 2 fold and the “decrease in specific / enzymatic activity compared to wild type” value worked out at 2 fold.
